T1: Human TROP2 full length, on tumor cells (HCT116, MDAMB231, NCI-H292) (human, UniProt P09758 31-323)
T1 sequence: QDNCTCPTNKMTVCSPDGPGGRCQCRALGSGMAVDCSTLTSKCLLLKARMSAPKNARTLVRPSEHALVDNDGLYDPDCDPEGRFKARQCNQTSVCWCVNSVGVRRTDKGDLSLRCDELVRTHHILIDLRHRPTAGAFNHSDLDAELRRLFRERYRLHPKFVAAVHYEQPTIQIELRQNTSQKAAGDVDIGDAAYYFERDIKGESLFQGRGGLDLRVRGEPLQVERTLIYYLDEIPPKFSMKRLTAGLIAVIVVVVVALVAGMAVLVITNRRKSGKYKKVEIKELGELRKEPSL

T2: Cyno CD3 (Antigen was biotinylated for capture on neutravidin plates; the site of biotin and any tag are not stated.)
T2 construct: also called cynomolgus monkey CD3
T2 chain: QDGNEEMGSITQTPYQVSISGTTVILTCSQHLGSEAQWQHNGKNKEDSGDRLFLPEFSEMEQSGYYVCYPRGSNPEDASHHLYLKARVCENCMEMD


Experiments:
[1] = target: T1, Human TROP2 full length, on tumor cells …; test: cell-based or functional assay
[2] = target: T3, human CD3 epsilon, biotinylated (human, UniProt P07766 23-126, limits assumed, biotinylated (site not stated)); test: BLI, CD3e-biotin on sensor, 50 nM TCE
T3 construct: Printed in places as CD36, CD38, CD3c or CD3&; also called CD3e-bio; human CD3e-biotin
T3 sequence (P07766 23-126 limits assumed): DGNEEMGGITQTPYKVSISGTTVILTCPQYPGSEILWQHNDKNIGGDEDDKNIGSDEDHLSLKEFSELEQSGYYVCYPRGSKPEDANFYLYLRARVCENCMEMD

[3] = target: T3, human CD3 epsilon, biotinylated; test: BLI, CD3e-biotin on sensor (summary)
Experimental: The wild-type (non-mutated) and alanine mutated TCEs were evaluated for their ability to bind CD36 or TROP2 via kinetic binding measurements using biolayer interferometry (BLI). […] The TCEs diluted in buffer were then associated onto the antigen loaded biosensors. Sensors were then transferred to buffer where the TCEs were then dissociated from the sensors. Association and dissociation rates were measured in real time using an Octet® instrument.

[4] = target: T1, Human TROP2 full length, on tumor cells …; test: cell-based or functional assay; remark: listed apart in the source
[5] = target: T2, Cyno CD3; test: Cyno CD3 binding ELISA

Row | Binder | TCE Cytotoxicity EC50, HCT116 + CD8+ T cells [1] [nM] | TCE Cytotoxicity EC50, MDAMB231 + CD8+ T cells [1] [nM] | Kd [2] [nM] | CD3 t1/2 [3] [min] | Kd [3] [nM] | Response [2] | CD3 Octet response [3] | also measured
1 | TCE-2 (TROP2 Fab x SP34.185 scFv, non-mutated, scFv on the Fab LC) (bispecific antibody) light: not shown heavy: QVQLQQSGSELKKPGASVKVSCKASGYTFTNYGMNWVKQAPGQGLKWMGWINTYTGEPTYTDDFKGRFAFSLDTSVSTAYLQISSLKADDTAVYFCARGGFGSSYWYFDVWGQGSLVTVSSASTKGPSVFPLAPSSKSTSGGTAALGCLVKDYFPEPVTVSWNSGALTSGVHTFPAVLQSSGLYSLSSVVTVPSSSLGTQTYICNVNHKPSNTKVDKKVEPKSC | 0.0016 | 0.0012 |  |  |  |  |  | 
2 | TCE-5 (TROP2 Fab HC D109A TCE, scFv on the Fab LC) (bispecific antibody) light: not shown heavy: QVQLQQSGSELKKPGASVKVSCKASGYTFTNYGMNWVKQAPGQGLKWMGWINTYTGEPTYTDDFKGRFAFSLDTSVSTAYLQISSLKADDTAVYFCARGGFGSSYWYFAVWGQGSLVTVSSASTKGPSVFPLAPSSKSTSGGTAALGCLVKDYFPEPVTVSWNSGALTSGVHTFPAVLQSSGLYSLSSVVTVPSSSLGTQTYICNVNHKPSNTKVDKKVEPKSC | 0.0058 | 0.0026 |  |  |  |  |  | TCE Cytotoxicity EC50, H292 + CD8+ T cells [1]: 0.0002 nM
3 | TCE-3 (TROP2 Fab HC R98A TCE, scFv on the Fab LC) (bispecific antibody) light: not shown heavy: QVQLQQSGSELKKPGASVKVSCKASGYTFTNYGMNWVKQAPGQGLKWMGWINTYTGEPTYTDDFKGRFAFSLDTSVSTAYLQISSLKADDTAVYFCAAGGFGSSYWYFDVWGQGSLVTVSSASTKGPSVFPLAPSSKSTSGGTAALGCLVKDYFPEPVTVSWNSGALTSGVHTFPAVLQSSGLYSLSSVVTVPSSSLGTQTYICNVNHKPSNTKVDKKVEPKSC | 0.022 | 0.0077 |  |  |  |  |  | TCE Cytotoxicity EC50, H292 + CD8+ T cells [1]: 0.0004 nM
4 | TCE-1 (TROP2 Fab x SP34.185 scFv, non-mutated, scFv on the Fab HC) (bispecific antibody) light: DIQLTQSPSSLSASVGDRVSITCKASQDVSIAVAWYQQKPGKAPKLLIYSASYRYTGVPDRFSGSGSGTDFTLTISSLQPEDFAVYYCQQHYITPLTFGAGTKVEIKRTVAAPSVFIFPPSDEQLKSGTASVVCLLNNFYPREAKVQWKVDNALQSGNSQESVTEQDSKDSTYSLSSTLTLSKADYEKHKVYACEVTHQGLSSPVTKSFNRGEC heavy: not shown | 0.0286 | 0.012 |  |  |  |  |  | TCE Cytotoxicity EC50, H292 + CD8+ T cells [1]: 0.0013 nM
5 | TCE-25 (anti-CD3 scFv V231A, anti-TROP2 wt) (bispecific antibody) light: DIQLTQSPSSLSASVGDRVSITCKASQDVSIAVAWYQQKPGKAPKLLIYSASYRYTGVPDRFSGSGSGTDFTLTISSLQPEDFAVYYCQQHYITPLTFGAGTKVEIKRTVAAPSVFIFPPSDEQLKSGTASVVCLLNNFYPREAKVQWKVDNALQSGNSQESVTEQDSKDSTYSLSSTLTLSKADYEKHKVYACEVTHQGLSSPVTKSFNRGEC heavy: not shown |  |  | 6.26 | 2.96 | 6.26 |  |  | 
6 | TCE-32 (anti-CD3 scFv W238A, anti-TROP2 wt) (bispecific antibody) light: DIQLTQSPSSLSASVGDRVSITCKASQDVSIAVAWYQQKPGKAPKLLIYSASYRYTGVPDRFSGSGSGTDFTLTISSLQPEDFAVYYCQQHYITPLTFGAGTKVEIKRTVAAPSVFIFPPSDEQLKSGTASVVCLLNNFYPREAKVQWKVDNALQSGNSQESVTEQDSKDSTYSLSSTLTLSKADYEKHKVYACEVTHQGLSSPVTKSFNRGEC heavy: not shown |  |  | 31 |  | 31 | 0.0683 | 0.07 | H292 Cytotox EC50 [4]: > 1 nM
7 | TCE-6 (TROP2 Fab HC R98A TCE, scFv on the Fab HC) (bispecific antibody) light: DIQLTQSPSSLSASVGDRVSITCKASQDVSIAVAWYQQKPGKAPKLLIYSASYRYTGVPDRFSGSGSGTDFTLTISSLQPEDFAVYYCQQHYITPLTFGAGTKVEIKRTVAAPSVFIFPPSDEQLKSGTASVVCLLNNFYPREAKVQWKVDNALQSGNSQESVTEQDSKDSTYSLSSTLTLSKADYEKHKVYACEVTHQGLSSPVTKSFNRGEC heavy: not shown | 0.143 | 0.0772 |  |  |  |  |  | TCE Cytotoxicity EC50, H292 + CD8+ T cells [1]: 0.0063 nM
8 | TCE-22 (anti-CD3 scFv Y111A, anti-TROP2 wt) (bispecific antibody) light: DIQLTQSPSSLSASVGDRVSITCKASQDVSIAVAWYQQKPGKAPKLLIYSASYRYTGVPDRFSGSGSGTDFTLTISSLQPEDFAVYYCQQHYITPLTFGAGTKVEIKRTVAAPSVFIFPPSDEQLKSGTASVVCLLNNFYPREAKVQWKVDNALQSGNSQESVTEQDSKDSTYSLSSTLTLSKADYEKHKVYACEVTHQGLSSPVTKSFNRGEC heavy: not shown |  |  |  |  |  | -0.0009 |  | 
9 | TCE-31 (anti-CD3 scFv R237A, anti-TROP2 wt) (bispecific antibody) light: DIQLTQSPSSLSASVGDRVSITCKASQDVSIAVAWYQQKPGKAPKLLIYSASYRYTGVPDRFSGSGSGTDFTLTISSLQPEDFAVYYCQQHYITPLTFGAGTKVEIKRTVAAPSVFIFPPSDEQLKSGTASVVCLLNNFYPREAKVQWKVDNALQSGNSQESVTEQDSKDSTYSLSSTLTLSKADYEKHKVYACEVTHQGLSSPVTKSFNRGEC heavy: not shown |  |  | 6.51 | 2.67 | 6.51 | 0.728 | 0.73 | 
10 | TCE-29 (anti-CD3 scFv S235A, anti-TROP2 wt) (bispecific antibody) light: DIQLTQSPSSLSASVGDRVSITCKASQDVSIAVAWYQQKPGKAPKLLIYSASYRYTGVPDRFSGSGSGTDFTLTISSLQPEDFAVYYCQQHYITPLTFGAGTKVEIKRTVAAPSVFIFPPSDEQLKSGTASVVCLLNNFYPREAKVQWKVDNALQSGNSQESVTEQDSKDSTYSLSSTLTLSKADYEKHKVYACEVTHQGLSSPVTKSFNRGEC heavy: not shown |  |  | 3.41 | 3.64 | 3.41 | 0.682 | 0.68 | 
11 | TCE-42 (anti-CD3 scFv with N30Q, I109V, G172A, V231A; anti-TROP2 HC F108A) (bispecific antibody) light: DIQLTQSPSSLSASVGDRVSITCKASQDVSIAVAWYQQKPGKAPKLLIYSASYRYTGVPDRFSGSGSGTDFTLTISSLQPEDFAVYYCQQHYITPLTFGAGTKVEIKRTVAAPSVFIFPPSDEQLKSGTASVVCLLNNFYPREAKVQWKVDNALQSGNSQESVTEQDSKDSTYSLSSTLTLSKADYEKHKVYACEVTHQGLSSPVTKSFNRGEC heavy: not shown |  |  |  |  |  |  |  | EC50 [5]: 0.354 nM
12 | TCE-26 (anti-CD3 scFv L232A, anti-TROP2 wt) (bispecific antibody) light: DIQLTQSPSSLSASVGDRVSITCKASQDVSIAVAWYQQKPGKAPKLLIYSASYRYTGVPDRFSGSGSGTDFTLTISSLQPEDFAVYYCQQHYITPLTFGAGTKVEIKRTVAAPSVFIFPPSDEQLKSGTASVVCLLNNFYPREAKVQWKVDNALQSGNSQESVTEQDSKDSTYSLSSTLTLSKADYEKHKVYACEVTHQGLSSPVTKSFNRGEC heavy: not shown |  |  | 8.39 | 2.64 | 8.39 | 0.663 | 0.66 | 
13 | TCE-27 (anti-CD3 scFv W233A, anti-TROP2 wt) (bispecific antibody) light: DIQLTQSPSSLSASVGDRVSITCKASQDVSIAVAWYQQKPGKAPKLLIYSASYRYTGVPDRFSGSGSGTDFTLTISSLQPEDFAVYYCQQHYITPLTFGAGTKVEIKRTVAAPSVFIFPPSDEQLKSGTASVVCLLNNFYPREAKVQWKVDNALQSGNSQESVTEQDSKDSTYSLSSTLTLSKADYEKHKVYACEVTHQGLSSPVTKSFNRGEC heavy: not shown |  |  | 12.3 | 6.45 | 12.3 | 0.414 |  | H292 Cytotox EC50 [4]: > 1 nM
14 | TCE-28 (anti-CD3 scFv Y234A, anti-TROP2 wt) (bispecific antibody) light: DIQLTQSPSSLSASVGDRVSITCKASQDVSIAVAWYQQKPGKAPKLLIYSASYRYTGVPDRFSGSGSGTDFTLTISSLQPEDFAVYYCQQHYITPLTFGAGTKVEIKRTVAAPSVFIFPPSDEQLKSGTASVVCLLNNFYPREAKVQWKVDNALQSGNSQESVTEQDSKDSTYSLSSTLTLSKADYEKHKVYACEVTHQGLSSPVTKSFNRGEC heavy: not shown |  |  | 11.1 | 1.66 | 11.1 | 0.674 | 0.67 | 
15 | TCE-8 (TROP2 Fab HC D109A TCE, scFv on the Fab HC) (bispecific antibody) light: DIQLTQSPSSLSASVGDRVSITCKASQDVSIAVAWYQQKPGKAPKLLIYSASYRYTGVPDRFSGSGSGTDFTLTISSLQPEDFAVYYCQQHYITPLTFGAGTKVEIKRTVAAPSVFIFPPSDEQLKSGTASVVCLLNNFYPREAKVQWKVDNALQSGNSQESVTEQDSKDSTYSLSSTLTLSKADYEKHKVYACEVTHQGLSSPVTKSFNRGEC heavy: not shown | 0.083 | 0.026 |  |  |  |  |  | TCE Cytotoxicity EC50, H292 + CD8+ T cells [1]: 0.004 nM
16 | TCE-33 (anti-CD3 scFv V239A, anti-TROP2 wt) (bispecific antibody) light: DIQLTQSPSSLSASVGDRVSITCKASQDVSIAVAWYQQKPGKAPKLLIYSASYRYTGVPDRFSGSGSGTDFTLTISSLQPEDFAVYYCQQHYITPLTFGAGTKVEIKRTVAAPSVFIFPPSDEQLKSGTASVVCLLNNFYPREAKVQWKVDNALQSGNSQESVTEQDSKDSTYSLSSTLTLSKADYEKHKVYACEVTHQGLSSPVTKSFNRGEC heavy: not shown |  |  |  | 4.26 |  | 0.742 | 0.74 | 
17 | TCE-30 (anti-CD3 scFv N236A, anti-TROP2 wt) (bispecific antibody) light: DIQLTQSPSSLSASVGDRVSITCKASQDVSIAVAWYQQKPGKAPKLLIYSASYRYTGVPDRFSGSGSGTDFTLTISSLQPEDFAVYYCQQHYITPLTFGAGTKVEIKRTVAAPSVFIFPPSDEQLKSGTASVVCLLNNFYPREAKVQWKVDNALQSGNSQESVTEQDSKDSTYSLSSTLTLSKADYEKHKVYACEVTHQGLSSPVTKSFNRGEC heavy: not shown |  |  |  | 2.45 |  | 0.65 | 0.65 | 

Source: patent publication US20250154278A1 (JANUX THERAPEUTICS, published 2025)
